Data on one molecule can be found in publication PMC5582858, “The yeast kinesin-5 Cin8 interacts with the microtubule in a noncanonical manner” (The Journal of Biological Chemistry, 2017).

Assay [1] deals with T1, Subtilisin-treated microtubules (lacking the C-terminal tails of α- and β-tubulin) (bovine, UniProt Q6B856 1-445, Purified bovine brain tubulin is an isotype mixture; the representative isotypes alpha-1B and beta-2B are assumed, as the paper states none. Cleavage limits are not given; the conventional major sub). Nature of the assay: co-sedimentation; 2 μM kinesin, 0–4 μM paclitaxel-stabilised microtubules, no added nucleotide, high ionic strength (88 mM; ATPase buffer with 75 mM KCl), 298 K, 100,000 × g 30 min; supernatant and pellet by SDS-PAGE; apparent constants, fit to Equation 3. Conditions: both partners purified.
T1 sequence (chain, as listed by the source, chain 1 of 2): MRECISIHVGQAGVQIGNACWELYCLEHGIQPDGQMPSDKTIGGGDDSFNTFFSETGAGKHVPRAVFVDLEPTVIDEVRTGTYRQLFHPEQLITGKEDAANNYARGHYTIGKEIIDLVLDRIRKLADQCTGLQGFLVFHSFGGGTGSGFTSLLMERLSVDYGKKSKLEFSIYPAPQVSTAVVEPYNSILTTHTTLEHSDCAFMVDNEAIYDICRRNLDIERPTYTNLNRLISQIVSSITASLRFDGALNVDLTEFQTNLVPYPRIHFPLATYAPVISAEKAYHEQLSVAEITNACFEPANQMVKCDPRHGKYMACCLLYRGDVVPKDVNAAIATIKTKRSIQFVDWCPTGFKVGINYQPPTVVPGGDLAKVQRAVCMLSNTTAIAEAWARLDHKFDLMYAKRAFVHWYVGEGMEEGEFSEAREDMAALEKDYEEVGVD
T1 sequence (Q6B856 1-433, chain 2 of 2): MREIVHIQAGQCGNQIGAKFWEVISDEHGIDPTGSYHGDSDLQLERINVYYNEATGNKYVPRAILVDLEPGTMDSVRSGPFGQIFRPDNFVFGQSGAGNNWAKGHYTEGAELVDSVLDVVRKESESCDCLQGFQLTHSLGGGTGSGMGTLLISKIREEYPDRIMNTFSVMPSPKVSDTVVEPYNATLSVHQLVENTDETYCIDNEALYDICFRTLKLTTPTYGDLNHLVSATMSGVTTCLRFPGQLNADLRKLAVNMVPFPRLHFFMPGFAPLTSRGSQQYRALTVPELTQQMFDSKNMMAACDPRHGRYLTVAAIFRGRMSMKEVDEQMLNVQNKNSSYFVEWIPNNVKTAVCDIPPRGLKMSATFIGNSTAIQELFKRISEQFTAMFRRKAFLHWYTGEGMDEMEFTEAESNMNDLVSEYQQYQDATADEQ

Assay [2] addresses T1, Subtilisin-treated microtubules …. Nature of the assay: co-sedimentation; 2 μM kinesin, 0–4 μM paclitaxel-stabilised microtubules, no added nucleotide, low ionic strength (21 mM; ATPase buffer with 7.5 mM KCl), 298 K, 100,000 × g 30 min; supernatant and pellet by SDS-PAGE; apparent constants, fit to Equation 3. Conditions: both partners purified.

B1: Cin8-trx (Cin8 motor domain, residues 70–535, fused to N-terminal thioredoxin (TrxA), His6, TEV cleavage and Arg9 tags) (domain or fragment, S. cerevisiae, UniProt P27895 70-535, looked up)
chain: ISINTTGDTGITAQMNAKRYTVDKVFGPGASQDLIFDEVAGPLFQDFIKGYNCTVLVYGMTSTGKTYTMTGDEKLYNGELSDAAGIIPRVLLKLFDTLELQQNDYVVKCSFIELYNEELKDLLDSNSNGSSNTGFDGQFMKKLRIFDSSTANNTTSNSASSSRSNSRNSSPRSLNDLTPKAALLRKRLRTKSLPNTIKQQYQQQQAVNSRNNSSSNSGSTTNNASSNTNTNNGQRSSMAPNDQTNGIYIQNLQEFHITNAMEGLNLLQKGLKHRQVASTKMNDFSSRSHTIFTITLYKKHQDELFRISKMNLVDLAGSENINRSGALNQRAKEAGSINQSLLTLGRVINALVDKSGHIPFRESKLTRLLQDSLGGNTKTALIATISPAKVTSEETCSTLEYASKAKNIKNKPQLGSFIMKDILVKNITMELAKIKSDLLSTKSKEGIYMSQDHYKNLNSDLESYKN
notes: Kinesin-5 Cin8, S. cerevisiae, motor domain, residues 70–535; Expected mass 67.3 kDa; source: E. coli B834(DE3) with pRILP, purified (SP-Sepharose, nickel-nitrilotriacetic acid, Sephadex G-25); not shown: thioredoxin (TrxA), N-terminal, kept; His6, N-terminal, kept; TEV cleavage tag, N-terminal, kept; Arg9, N-terminal, kept
Take B1: the figures for the “stoichiometry N” value in assay [1] and in assay [2] were 2.2 ± 0.2 and 5.4 ± 0.4, respectively.
